For test [1], the target named is TIGIT-expressing CHO-K1 cells (UniProt Q495A1). The experiment in a line: flow cytometry.
Test [2] has as its target CD47-expressing CHO-K1 cells (UniProt Q08722). The test can be described thus: flow cytometry.

Data on one substance can be found in patent US20220267475A1.

By EC50 is commonly meant the concentration giving half of the maximal effect. Read a high EC50 as a need for much substance.

Sequence of CD47-expressing CHO-K1 cells (Q08722 19-323): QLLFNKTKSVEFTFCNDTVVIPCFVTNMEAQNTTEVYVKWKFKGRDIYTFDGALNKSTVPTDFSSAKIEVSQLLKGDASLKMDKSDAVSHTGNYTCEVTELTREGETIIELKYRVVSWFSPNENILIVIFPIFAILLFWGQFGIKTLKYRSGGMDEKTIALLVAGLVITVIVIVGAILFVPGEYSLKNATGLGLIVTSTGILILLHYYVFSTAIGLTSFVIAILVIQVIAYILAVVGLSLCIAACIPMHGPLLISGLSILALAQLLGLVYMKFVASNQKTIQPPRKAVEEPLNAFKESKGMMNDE
Sequence of TIGIT-expressing CHO-K1 cells (Q495A1 22-244): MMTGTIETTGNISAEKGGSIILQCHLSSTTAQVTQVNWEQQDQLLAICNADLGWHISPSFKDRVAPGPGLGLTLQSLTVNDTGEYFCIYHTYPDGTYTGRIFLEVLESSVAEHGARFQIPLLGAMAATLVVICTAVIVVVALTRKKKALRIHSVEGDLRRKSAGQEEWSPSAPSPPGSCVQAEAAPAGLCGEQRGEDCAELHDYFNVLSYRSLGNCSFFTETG

Take Human IgG: the EC50 is 15 pM in test [1] and 0.992 pM in test [2].
